Measurements: article PMC6239170

Columns and labels:
[1] = target: IMP3 RRM12 (UniProt O00425 1-161); assay: ITC
[2] = target: IMP3 RRM12 Y5A (UniProt O00425 1-161, Y5A); assay: ITC
Chain of IMP3 RRM12 Y5A (O00425 1-161 Y5A): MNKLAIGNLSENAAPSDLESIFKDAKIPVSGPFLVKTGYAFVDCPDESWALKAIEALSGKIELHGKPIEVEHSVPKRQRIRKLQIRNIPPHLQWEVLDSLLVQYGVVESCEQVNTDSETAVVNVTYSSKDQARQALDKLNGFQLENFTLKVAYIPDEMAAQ

Chain of IMP3 RRM12 (O00425 1-161): as the sequence (O00425 1-161 Y5A) above, with A5Y counted along it

Binder | binding result [1] | binding result [2]
GGGG (ssRNA) | no binding | 
UUUU (ssRNA) | no binding | 
ACAC (ssRNA) |  | no binding
